From US20080056998A1, “COMPOSITION AND PROCESSES FOR CROSSING THE BLOOD-BRAIN BARRIER WITH POLYPEPTIDES FOR IN VIVO NEUROIMAGING” (The General Hospital Corporation, priority 2006, published 2008)

Assays:
mouse brain [1] = test: ex vivo NIR fluorescence imaging of removed brains and coronal brain slices; assay type: in vivo; settings: for ex vivo NIR fluorescent signal of removed brain: 24 hours after injection
Experimental: In another exemplary embodiment of the present invention, fluorescence signals may be observed using exemplary ex vivo imaging performed on the exemplary mouse brains post injection of the exemplary delivery module. Exemplary Ex vivo NIR fluorescence imaging can be performed, e.g., 24 hours after the injection of the exemplary MPAP-Cy5.5 delivery module. Upon sacrificing the mice, each mouse brain can be removed, placed into the exemplary imaging system, and imaged as described above.
Additional observations regarding accumulation of the exemplary delivery module in the brain can be obtained after imaging 1 mm-thick coronal brain slices from the exemplary mouse brain. The exemplary mouse brain can be cut into 1 mm coronal brain sections using a slicing apparatus, such as the RBM-2000C provided by Analytical Scientific Instruments, taken at the following exemplary anteroposterior coordinates from bregma, e.g.: +1.1 mm, +0.1 mm, −0.9 mm, −1.9 mm. Referring to FIG. 6, the exemplary brain slices can then be placed into the exemplary imaging system and imaged 600 as described above.

[2] = tested on: neurons, astrocytes, and endothelial cells; test: dual-channel fluorescence microscopy of stained brain sections; assay type: in vivo, mouse
Source text: When the exemplary MPAP-Cy5.5 delivery module penetrates the BBB, exemplary dual-channel fluorescence microscopy can be used to observe whether the distribution of the exemplary MPAP-Cy5.5 delivery module in the exemplary brain forms in a cell-type-specific manner. In a further exemplary embodiment of the present invention, an exemplary distribution of the exemplary MPAP-Cy5.5 delivery module within different cell types of a brain can be determined with dual-channel fluorescence microscopy. For example, cryopreserved serial brain sections from mice perfused with the MPAP-Cy5.5 delivery module can be stained for neurons, astrocytes, and endothelial cells using anti-neuronal nuclei antibody (such as, for example, NeuN, monoclonal, from Chemicon International, Temecula, Calif.), anti-glial fibrillary acidic protein antibody (such as, for example, GFAP from Chemicon International, Temecula, Calif.), and anti-CD31 (such as, for example PECAM-1 from BD Biosciences Pharmingen, San Jose, Calif.). The brain sections may be further incubated with corresponding FITC-conjugated secondary antibodies. Further, slides of the brain sections can be mounted in a mounting medium, such as, for example, a Vectashield mounting medium from Vector Laboratories in Burlingame, Calif. Dual-channel fluorescence microscopy in, for example, the Cy5.5 and FITC channels can be performed using, for example, a Nikon Eclipse 50i fluorescence microscope equipped with an appropriate filter set, such as, for example, one provided by Chroma Technology Corporation in Rockingham, Vt. Exemplary images can be acquired using a CCD camera with near-infrared sensitivity (such as, for example, a SPOT 7.4 Slider RTKE from Diagnostic Instruments in Sterling Heights, Mich.).
Although a mechanism for neuronal accumulation remains unclear, it may be possible that preferential targeting into neurons can be related to the higher lypophilicity of neuronal membranes as compared to other cell types. (See, e.g., publications 4 and 6.) Lypophilic peptides may have an advantage to penetrate by adsorptive endocytosis. […] However, some signal may be detectable in the thalamus 904 and the CA3 area of the hippocampus 905.

brain endothelium = test: dual-channel confocal microscopy of brain endothelium; assay type: in vivo; settings: intravenous, about 2.5 nmol; sacrificed 1, 3 or 6 hours after injection
Experimental: Further, fluorescence confocal microscopy techniques/systems can be employed to investigate a delivery route of the delivery module after injection. For example, mammals can be injected intravenously with about 2.5 nmol of the exemplary delivery module MPAPCy5.5, perfused, and sacrificed 1, 3 or 6 hours after injection. Brain sections from the sacrificed animals may be frozen. The frozen brain sections can then be stained with, for example, anti-CD31 antibodies followed by FITC-conjugated secondary antibody as described above. Dual-channel confocal microscopy can be performed, for example, in the FITC and Cy5.5 channels. Further, confocal microscopy can be performed using, for example, an Axiovert 200 M inverted microscope (from, e.g., Carl Zeiss, Inc. Thornwood, N.Y.), equipped with an LSM Pascal Vario RGB Laser Module (Arg 458/488/514 nm, HeNe 543 nm, HeNe 633 nm). An exemplary confocal images with a slice thickness of, for example, <0.9 Am can be acquired to produce, for example, FITC and Cy5.5 staining as well as Nomarski optics. Exemplary summation projection of all background-corrected confocal slices can be produced using, for example, LSM 5 Pascal Software. Further, the exemplary confocal images can be color-coded with, for example, green for FITC and red for Cy5.5. […]

mouse brain [3] = test: in vivo NIR fluorescence imaging after intravenous injection; settings: mice; for crossing of the BBB / accumulation in the brain: MPAP-Cy5.5 at about 24 hours post-injection, Cy5.5 at any point in time; for NIR fluorescent signal in the brain in vivo: imaging 15 min to 44 hours
Experimental: In the exemplary embodiment of the present invention, for in vivo optical imaging, n mice can be injected intravenously with about 2.5 nmol of the exemplary delivery module MPAP-Cy5.5, Cy5.5 alone, or saline solution. In an exemplary embodiment of the present invention, n=4 for each group of solutions for a total of 12 mice. Imaging can be performed at various times after injection. For example, it may be performed about 15 and 30 minutes after injection, as well as 1, 2, 3, 6, 24 and 44 hours after injection. For exemplary NIR fluorescent imaging, the mice can be placed into an imaging system, for example a Kodak Imaging Station IS2000MM, equipped with a band-pass filter at about 630 nm and a long pass filter at about 700 nm, such as the Chroma Technology Corporation. Exemplary images can be captured with e.g., charge-coupled device (“CCD”) camera embedded in the imaging system and exemplary analyses may be performed using Kodak ID3.6.3 imaging software.
Initially, after an exemplary intravenous injection of the delivery module into an mammal, such as a mouse, there may be no defined fluorescent signal in the brain for a few hours. […] An increase in the emitted light can occur 24 hours after injection 202, and the signal can continue to accumulate up to approximately 2 days or more 203.

[4] = HPLC study of perfused brain homogenate; assay type: in vivo, mouse; settings: brain perfused 24 hours after intravenous injection
Experimental: In a further exemplary embodiment of the present invention, the mouse brains can be perfused for 24 hours after injection of the delivery module in order to remove intravascular contents. The brain homogenates can then be subjected to exemplary High-Powered Liquid Chromatography (“HPLC”) analysis.
According to an exemplary embodiment of the present invention, n mice (n=4 for example) can be injected intravenously with the delivery module. The mouse brain uptake of the compound can be detected by HPLC after in situ brain perfusion. A perfused brain can be soaked in a HPLC mobile phase solution for 15 minutes and homogenized on ice using a mechanical homogenizer, such as that which is marketed by Virtis in Gardiner, N.Y. A resulting brain residue can be filtered using, for example, 0.45 Am Whatman Nylon filters, lyophilized, and analyzed by 2D-HPLC, such as that whish is marketed by Lachrome Elite, Hitachi in San Jose, Calif. […] In addition, the detected peak can be correlated and matched with the absorbance spectrum profile of Cy5.5 dye. […] Furthermore, the absorbance profile of this peak can correspond to the absorbance profile of Cy5.5 dye at approximately 670 nm 702.
Upon switching the detection wavelength to 220 nm, the retention time peak at 32 min can be detected along with other more polar peaks, such as those associated with brain metabolites.

Row | Substance | ex vivo NIR fluorescent signal of removed brain (mouse brain [1]) | distribution in 1 mm coronal brain slices (mouse brain [1]; slices at +1.1, +0.1, −0.9, −1.9 mm from bregma) | accumulation in astrocytes ([2]; GFAP staining) | accumulation in neurons ([2]; NeuN staining) | localization in endothelial cells ([2]; anti-CD31 staining) | distribution over brain regions ([2]; cortex, hippocampus, thalamus) | subcellular localization in neurons ([2]; mouse, in vivo) | time after injection to pass through the endothelium (brain endothelium) [h] | crossing of the BBB / accumulation in the brain (mouse brain [3]) | time post-injection at which NIR fluorescent signal is detected in the brain (head summit) (mouse brain [3]; about 2.5 nmol) [h] | time up to which the brain signal continues to accumulate (mouse brain [3]; about 2.5 nmol) [days] | NIR fluorescent signal in the brain in vivo (mouse brain [3]; about 2.5 nmol) | accumulation in peripheral tissues / mouse body (mouse brain [3]; kidneys and spleen) | degradation in systemic circulation (intact compound in brain homogenate by HPLC) [4]
1 | C14-βAla-(Arg)7-Cys(Cy5.5)-NH2 [MPAP-Cy5.5] | strong NIR fluorescent signal | distributed randomly throughout the brain parenchyma | may not show widespread accumulation | primarily accumulate in neurons | no significant localization | detected in almost all regions of the brain | predominantly localized within the cell cytoplasm | ≤ 1 | crossed the BBB and accumulate within the mouse brain | 6 | ≥ 2 | progressively increasing NIR fluorescent signal | accumulation of the delivery module in peripheral tissues | may likely not degrade in systemic circulation
2 | Cy5.5 [reference compound] | no significant signal beyond background levels |  |  |  |  |  |  |  | no accumulation in the brain |  |  | no signal appears |  | 
